# Data reported in doi:10.1101/2025.10.04.680434.
# Molecular target: human 40S ribosomal subunit (human) (UniProt P62269)
# Test: cryo-EM structure
substance,measurement,value
human eIF3 (from UniProt P55884 1-814; Q99613 1-913; O15371 1-548; O75821 1-320; Q13347 1-325) (complex),other,40%
